This is an account of results in FireProtDB (doi:10.1073/pnas.90.18.8367).

The labels stand for the following.
B1: DNA-Binding protein, P69542 (parent)
chain: MIKVEIKPSQAQFTTRSGVSRQGKPYSLNEQLCYVDLGNEYPVLVKITLDEGQPAYAPGLYTVHLSSFKVGQFGSLMIDRLRLVPAK

Variants of B1 are the subject of the data set. The conditions noted are these: Enterobacteria phage fd; pH 7; 25 °C; GdnHCl; CD; MOPS 50 mM; NaCl 100 mM; reversible: yes; structure 1VQB; whole UniProt chain shown.
Take MIKVEIKPSQAQTTTRSGVSRQGKPYSLNEQLCYVDLGNEYPVLVKITLDEGQPAYAPGLYTVHLSSFKVGQFGSLMIDRLRLVPAK [F13T]: the “ddG of mutation (higher = less stable)” value came out at 0.7 kcal/mol.
Turning to MIKVEIKPSQAQFTTRSGVSRQGKPYSLNEQYCYVDLGNEYPVLVKITLDEGQPAYAPGLYTVHLSSFKVGQFGSLMIDRLCLVPAK [L32Y R82C], the unfolding free energy was 0.15 kcal/mol.
As to MIKVEIKPSQAQFTTRSGVSRQGKPYSLNEQLCYVDLGNEYPVLCKITLDEGQPAYAPGLYTVHLSSFKVGQFGSLMIDRLRLVPAK [V45C], the “ddG of mutation (higher = less stable)” value is 0.1 kcal/mol.
For the variant MIKVEIKPSQAQFTTRSGVSRQGKPYSLNEQLCYVDLGNEYPVLVKITLDEGQPAYAPGLYTVHLSSFKVGQFGSLMIDRLCLVPAK [R82C], the “ddG of mutation (higher = less stable)” value turned out to be 1.5 kcal/mol.
Consider MIKVEIKPSQAQFTTRSGVSRQGKPYSLNEQYCYVDLGNEYPVLVKITLDEGQPAYAPGLYTVHLSSFKVGQFGSLMIDRLRLVPAK [L32Y], for which the “ddG of mutation (higher = less stable)” value is -1 kcal/mol.
Consider MIKVEIKPSQAQFTTRSGVSRQGKPYSLNEQLCYVDLGNEYPVLVKMTLDEGQPAYAPGLYTVHLSSFKVGQFGSLMIDRLRLVPAK [I47M], for which the “ddG of mutation (higher = less stable)” value came to 2.2 kcal/mol.
For MIKVEIKPSQAQFTTRSGVSRQGKPYSLNEQLCYVDLGNEYPVLVKFTLDEGQPAYAPGLYTVHLSSFKVGQFGSLMIDRLRLVPAK [I47F], the “ddG of mutation (higher = less stable)” value amounted to 2 kcal/mol.
For the variant MIKVEIKPSQAQFTTRSGVSRQGKPYSLNEQLCYVDLGNEYPVLVKLTLDEGQPAYAPGLYTVHLSSFKVGQFGSLMIDRLRLVPAK [I47L], the “ddG of mutation (higher = less stable)” value is 0.7 kcal/mol.
Still for that read-out and setting: for MIKVEIKPSQAQFTTRSGVSRQGKPYSLNEQLCYVDLGNEYPVLVKVTLDEGQPAYAPGLYTVHLSSFKVGQFGSLMIDRLRLVPAK [I47V] the value was 2.6 kcal/mol; for MIKVEIKPSQAQFTTRSGVSRQGKPYSLNEQLCYVDLGNEYPVLVKITLDEGQPAYAPGLYTVHLSSLKVGQFGSLMIDRLRLVPAK [F68L], 4.3 kcal/mol; for MIKVEIKPSQAQFTTRSGVSRQGKPYSLNEQLCYVDLGNEYPVLVKITLDEGQPAYAPGLYTVCLSSFKVGQFGSLMIDRLRLVPAK [H64C], -0.5 kcal/mol.
In the case of MIKVEIKPSQAQFTTRSGVSRQGKPYSLNEQLVYVDLGNEYPVLVKITLDEGQPAYAPGLYTVHLSSFKVGQFGSLMIDRLRLVPAK [C33V], the “ddG of mutation (higher = less stable)” value worked out at 0.2 kcal/mol.
Still for that read-out and setting: the figure for MIKVEIKPSQAQFTTRSGVSRQGKPYSLNEQLMYVDLGNEYPVLVKITLDEGQPAYAPGLYTVHLSSFKVGQFGSLMIDRLRLVPAK [C33M] is 3.5 kcal/mol.
Take MIKVEIKPSQAQTTTRSGVSRQGKPYSLNFQLCYVDLGNEYPVLVKITLDEGQPAYAPGLYTVHLSSFKVGQFGSLMIDRLRLVPAK [F13T E30F]: the unfolding free energy came out at 1.59 kcal/mol.
As for MIKVEIKPSQAQFTTRSGVSRQGKPYSLNEQLCYVDLGNEYPVLVKITLDEGQPAYAPGLYTVHLSSFKVGQFGSLMIDRLRLVPTK [A86T], the “ddG of mutation (higher = less stable)” value was 0.7 kcal/mol.
MIKVEIKPSQAQFTTRSGVSRQGKPYSLNEQLCYVDLGNEYPVLVKITLDEGQPAYAPGLYTVHLSSFKVGQFGSLMIDRLRLVPVK [A86V]: the “ddG of mutation (higher = less stable)” value is -0.5 kcal/mol.
As for MIKVEIKPSQAQFTTRSGVSRQGKPYSLNEQLCYADLGNEYPVLVKITLDEGQPAYAPGLYTVHLSSFKVGQFGSLMIDRLRLVPAK [V35A], the “ddG of mutation (higher = less stable)” value is 2.2 kcal/mol.
As for MIKVEIKPSQAQFTTRSGVSRQGKPYSLNEQLCYCDLGNEYPVLVKITLDEGQPAYAPGLYTVHLSSFKVGQFGSLMIDRLRLVPAK [V35C], the “ddG of mutation (higher = less stable)” value is 1.4 kcal/mol.
The same measure, in the same setting: for MIKVEIKPSQAQFTTRSGVSRQGKPYSLNEQLCYMDLGNEYPVLVKITLDEGQPAYAPGLYTVHLSSFKVGQFGSLMIDRLRLVPAK [V35M] the value was 1.1 kcal/mol; for MIKVEIKPSQAQFTTRSGVSRQGKPYSLNEQLCYIDLGNEYPVLVKITLDEGQPAYAPGLYTVHLSSFKVGQFGSLMIDRLRLVPAK [V35I], 0.7 kcal/mol; for MIKVEIKPSQAQFTTRSGVSRQGKPYSLNEQLCYLDLGNEYPVLVKITLDEGQPAYAPGLYTVHLSSFKVGQFGSLMIDRLRLVPAK [V35L], 2.7 kcal/mol.
For MIKVEIKPSQAQFTTRSGVSRQGKPYSLNFQLCYVDLGNEYPVLVKITLDEGQPAYAPGLYTVHLSSFKVGQFGSLMIDRLRLVPVK [E30F A86V], the unfolding free energy amounted to 2.05 kcal/mol.
Take MIKVEIKPSQAQFTTRSGVSRQGKPYSLNFQLCYVDLGNEYPVLVKITLDEGQPAYAPGLYTVHLSSFKVGQFGSLMIDRLRLVPTK [E30F A86T]: the unfolding free energy is 1.17 kcal/mol.
Consider MIKVEIKPSQAQFTTRSGVSRQGKPYSLNFQLCYVDLGNEYPVLVKITLDEGQPAYAPGLYTVHLSSFKVGQFGSLMIDRLRLVPAK [E30F], for which the “ddG of mutation (higher = less stable)” value is -2 kcal/mol.
Regarding MIKVEIKPSQAQFTTRSGVSRQGKPYSLNEQLCYVDLGNEYPVLVKITLDEGQPAYAPGLYTVHLSSFKVGQWGSLMIDRLRLVPAK [F73W], the “ddG of mutation (higher = less stable)” value is -0.8 kcal/mol.
As for MIKVEVKPSQAQFTTRSGVSRQGKPYSLNFQLCYVDLGNEYPVLVKITLDEGQPAYAPGLYTVHLSSFKVGQFGSLMIDRLRLVPAK [I6V E30F], the unfolding free energy is 0.71 kcal/mol.
Regarding MIKVEIKPSQAQFTTRSGVSRQGKPYSVNEQLCYVDLGNEYPVLVKITLDEGQPAYAPGLYTVHLSSFKVGQFGSLMIDRLRLVPAK [L28V], the “ddG of mutation (higher = less stable)” value is -1.1 kcal/mol.
In the case of MIKVEVKPSQAQFTTRSGVSRQGKPYSLNEQLCYVDLGNEYPVLVKITLDEGQPAYAPGLYTVHLSSFKVGQFGSLIIDRLRLVPAK [I6V M77I], the unfolding free energy came out at 0.34 kcal/mol.
